Results as given in patent publication US20060008891A1, “Cathepsin G-related peptides as modulators of formylpeptide receptors (FPR)” (The Government of USA as repersented by the Secretary, …, priority 2004, published 2006).
Several values for one entry are separate records, joined by “and”; a condition that tells them apart may be missing. Identical values can stand only once.

Key:
FPR [1] = target: T1, FPR (Homo sapiens, UniProt P21462); test: FPR internalization (confocal microscopy), ETFR cells; format: cell-based; conditions: 30 min 37° C.
T1 construct: expressed in transfected cells; host or cells: Rat basophilic leukemia (RBL) cells, stably transfected (ETFR cells); gift of H. Ali and R. Snyderman, Duke University
T1 sequence (P21462 1-350): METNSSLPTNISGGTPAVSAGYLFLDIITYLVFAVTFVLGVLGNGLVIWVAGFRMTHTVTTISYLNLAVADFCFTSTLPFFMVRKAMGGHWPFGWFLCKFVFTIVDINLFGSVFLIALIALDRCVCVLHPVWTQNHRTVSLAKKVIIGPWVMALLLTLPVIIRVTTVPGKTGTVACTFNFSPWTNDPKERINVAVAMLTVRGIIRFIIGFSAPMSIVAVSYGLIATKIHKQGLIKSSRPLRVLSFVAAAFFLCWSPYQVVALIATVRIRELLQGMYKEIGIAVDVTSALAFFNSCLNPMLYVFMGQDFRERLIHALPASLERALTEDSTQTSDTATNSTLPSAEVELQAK
Procedure: For detection of FPR internalization, ETFR cells were seeded on coverslips and cultured overnight in DMEM containing 10% FCS at 37° C. After pretreatment with medium or stimulants for 30 minutes at 37° C., the cells were fixed in 0.25% paraformaldehyde for 15 min at 4° C. The cells were then permeabilized with 0.2% Tween 20 for 30 min at 4° C., followed by incubation with a monoclonal anti-human FPR antibody or isotype matched IgG for 30 min at 4° C. After three washes with 0.1% Tween 20 in DPBS, a FITC-labeled rat anti-mouse antibody (PharMingen) was applied to the cells for 30 min at 4° C. The coverslips were covered with DAPI, then mounted with an anti-fade, water-based mounting medium and analyzed under a laser scanning Zeiss LSM410 fluorescence confocal microscope.

FPR [2] = target: T1, FPR; test: Chemotaxis assay, RBL cells transfected with FPR (ETFR cells); format: cell-based
Procedure: (§1) Human PBMC were isolated from leukopacks obtained through the courtesy of Transfusion Medicine Department, National Institutes of Health Clinical Center (Bethesda, Md.) by Ficoll-Hypaque density gradient centrifugation. Monocytes were purified from human PBMC by Percoll gradient to yield>90% pure preparations. […] H. Ali and R. Snyderman, Duke University (Durham, N.C.) and maintained in the presence of 0.8 mg/ml geneticin (G418, Life Technologies, Rockville, Md.) in DMEM supplemented with 10% FCS. B. Chemotaxis assay Migration of phagocytes and ETFR cells was assessed using a 48-well microchemotaxis chamber (Neuroprobe, Cabin John, Md.) as previously described (Hu et al. (2001) J Leukoc Biol 70 15512). Briefly, different concentrations of stimulants were placed in the wells of the lower compartment of the chamber, and 50 μl cells (1.5×10^6 cells/ml for monocyte and neutrophil, 1×10^6 ETFR cells/ml) were added to the wells of the upper compartment. The lower and upper compartments were separated by either a 5-μm (for monocyte) or a 10-μm pore size, collagen-coated (for ETFR cells) polycarbonate filter (Osmonics, Livermore, Calif.). After incubation at 37° C. in humidified air with 5% CO2 (60 min for neutrophils, 90 min for monocytes, 4.5 h for ETFR cells), the filter was removed and stained, and the cells migrating across the filter were counted with light microscopy. The results are presented as the mean number of cells (±SD) in three high power fields (HPFs). For analysis of cross-desensitization, cells were pretreated with indicated reagents for 1 h at 37° C. After thorough washing with cold medium (RPMI 1640, 1% BSA), the cells were resuspended and assayed. To measure the effect of various signaling inhibitors, unless otherwise indicated, the cells were pre-incubated at 37° C. for 60 min with the inhibitors, and were then added to the upper wells of the chemotaxis chamber.

neutrophils = test: Chemotaxis assay, neutrophils; format: cell-based, human; conditions: neutrophils
Procedure: as §1

PKCδ = PKCδ translocation in ETFR cells; format: cell-based, rat; conditions: 100 nM fMLF, 10 μg/ml CaG or PMA 500 nM, 37° C. 10 min
Procedure: ETFR cells were seeded on coverslips and cultured overnight in DMEM containing 1% FCS at 37° C. After further culture in FCS-free DMEM for 3 h, cells were treated with stimulants for indicated time periods at 37° C. and were then fixed in 4% paraformaldehyde for 5 min at room temperature. […] The rabbit anti-PKCα/β, δ, and ξ, antibodies (1:1000 in DPBS) were applied separately for 1 h at room temperature. After three rinses with DPBS, the cells were stained with FITC-labeled goat anti-rabbit secondary antibody (PharMingen, 1:1000 in DPBS) for 1 h at room temperature. The coverslips were mounted with an anti-fade, water-based mounting medium with Propidium Iodide (PI) (Vector Lab, Burlingamem, Calif.) and analyzed under a laser scanning confocal fluorescence microscope (Zeiss LSM510 NLO Meta, Jena, Germany).

parental RBL cells = test: 125I-CaG binding to parental RBL cells; set-up: species or system rat; conditions: 25 nM 125I-CaG
Procedure: CaG was iodinated with a chrolamine-T method (Lofstrand Labs, Gaithersburg, Md.) with a specific activity of […] protein. Duplicate samples of ETFR cells or the parental RBL cells (2×10^6 cells in 200 μl RPMI 1640 containing 1% bovine serum albumin, 25 mM Hepes, and 0.05% NaN3) were incubated with 25 nM ^125I-CaG, in the presence of increasing concentrations of unlabeled ligands. After incubation and rotation at room temperature for 1 h, the cells were pelleted through a 10% sucrose/PBS cushion for 1 min at 10,000 g. The supernatant was removed and the radioactivity associated with cell pellets was measured in a γ counter (CliniGamma, Pharmacia Biotech Inc.). The binding data were analyzed with a Macintosh computer-aided program LIGAND (Dr. P. Munson, Division of Computer Research and Technology, NIH, Bethesda, Md.).

concentration range potently chemotactic (FPR [2]; ETFR cells): 4 to 400 nM
optimal concentration to induce ETFR cell migration (FPR [2]; ETFR cells): 5 µg/mL
concentration required to elicit optimal cell migration (FPR [2]; FPR-expressing cells, cell type not specified): 5-10 μg/ml and 200-400 nM
Substance: CaG: Cathepsin G, serine protease purified from neutrophil granules, purchased from Athens Research & Technology
FPR internalization (FPR [1]): significantly and dose-dependently induced FPR internalization
chemotactic response of ETFR cells (FPR [2]; ETFR cells): marked and dose-dependent chemotactic response
concentration range potently chemotactic (neutrophils): 4 to 400 nM
translocation of PKCδ (PKCδ): did not induce translocation of PKCδ
specific binding of 125I-CaG to parental RBL cells (parental RBL cells): no measurable levels of specific binding
